Data from patent publication US20190367592A1 (AC IMMUNE, published 2019).
Where no end group is shown, it is not given here.

Key:
Tau fragment 8-22 = target: T1, Tau fragment 8-22 (human, UniProt P10636-8 8-22); test: 15mer offset peptides
T1 construct: range 8-22
T1 peptide (looked up): FEVMEDHAGTYGLGD

Tau fragment 9-23 = target: T2, Tau fragment 9-23 (human, UniProt P10636-8 9-23); test: 15mer offset peptides
T2 construct: range 9-23
T2 peptide (looked up): EVMEDHAGTYGLGDR

Tau fragment 11-25 = target: T3, Tau fragment 11-25 (human, UniProt P10636-8 11-25, not fully specified); test: 15mer offset peptides
T3 construct: range 11-25
T3 peptide (looked up): MEDHAGTYGLGDRKD

Tau fragment 7-21 = target: T4, Tau fragment 7-21 (human, UniProt P10636-8 7-21); test: 15mer offset peptides
T4 construct: range 7-21
T4 peptide (looked up): EFEVMEDHAGTYGLG

[1] = target: T5, recombinant human Tau monomer, 2N4R isoform (amino acids 2-441) (human, UniProt P10636-8 2-441); test: SPR single-cycle, Tau monomer amine-coupled, IgG analyte; IgG (bivalent, avidity); Tau monomer on the chip
T5 construct: range 2-441; N-terminal His-tag removed with TEV protease; also called monomeric Tau
Experimental: (§1) Human monomer Tau protein was covalently coupled to a Biacore Series S CM5 chip using the Biacore Amine Coupling Kit (GE Life Sciences), resulting in immobilization to a level of approximately 128 RU. Direct binding of 37D3-H9 in both Fab and IgG formats was monitored using the single-cycle kinetics experimental format with five association periods of 300s each and antibody concentrations of 1, 2, 4, 8 and 16 nM (IgG) or 5, 10, 20, 40 and 80 nM (Fab). Dissociation was monitored for 7200 seconds (Fab) or for 14400 seconds (IgG). A value for the dissociation rate was calculated by fitting a 1:1 binding model to the data.

[2] = target: T5, recombinant human Tau monomer, 2N4R …; test: SPR, mIgG2a captured, Tau monomer analyte, 1:1 fit
Outline: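 Antibodies in mIgG2a format captured on anti-mouse IgG surface at 1 μg/ml (30 or 45 s) or 0.1 μg/ml (70 or 150 s), 10 μl/min, in HBSP (10 mM HEPES pH7.4, 150 mM NaCl, 0.05% Tween 20). Tau monomer flowed as analyte; association 180-480 s, dissociation 300-600 s, 1:1 fit.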
Target sequence in this assay (P10636 other isoform, or with tags, fused parts or gaps limits assumed): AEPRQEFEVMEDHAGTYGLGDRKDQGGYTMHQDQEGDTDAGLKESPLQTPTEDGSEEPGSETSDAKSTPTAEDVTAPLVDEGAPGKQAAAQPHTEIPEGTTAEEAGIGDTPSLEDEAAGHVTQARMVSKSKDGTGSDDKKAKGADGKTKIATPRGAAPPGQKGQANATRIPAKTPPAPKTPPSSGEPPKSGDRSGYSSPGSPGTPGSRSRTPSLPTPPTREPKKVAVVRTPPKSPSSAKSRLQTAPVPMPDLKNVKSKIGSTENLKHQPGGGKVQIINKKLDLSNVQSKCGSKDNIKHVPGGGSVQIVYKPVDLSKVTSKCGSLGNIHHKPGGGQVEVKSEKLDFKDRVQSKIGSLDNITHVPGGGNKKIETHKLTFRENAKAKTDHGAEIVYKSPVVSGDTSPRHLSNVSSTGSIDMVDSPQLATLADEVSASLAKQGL

Tau fragment 28-42 = target: T6, Tau fragment 28-42 (human, UniProt P10636-8 28-42, not fully specified); test: ELISA on Tau 15-mer peptides, O.D.; conditions of this panel not given
T6 construct: range 28-42
T6 peptide (looked up): GYTMHQDQEGDTDAG

Tau fragment 19-33 = target: T7, Tau fragment 19-33 (human, UniProt P10636-8 19-33, not fully specified); test: as above
T7 construct: range 19-33
T7 peptide (looked up): GLGDRKDQGGYTMHQ

Tau fragment 1-15 = target: T8, Tau fragment 1-15 (human, UniProt P10636-8 1-15); test: as above
T8 construct: range 1-15
T8 peptide (looked up): MAEPRQEFEVMEDHA

MAPT(10-24) = target: T9, MAPT(10-24) (human, also: biotinylated, site not given here); test: as above
T9 construct: also called Tau fragment 10-24
T9 peptide: VMEDHAGTYGLGDRK

Tau fragment 37-51 = target: T10, Tau fragment 37-51 (human, UniProt P10636-8 37-51); test: as above
T10 construct: range 37-51
T10 peptide (looked up): GDTDAGLKESPLQTP

MAPT(2-34) = target: T11, MAPT(2-34) (human, biotinylated); test: ELISA, biotinylated peptide on Neutravidin plate, IgG titrated, A450 nm
T11 construct: also called Tau fragment 2-34
T11 peptide: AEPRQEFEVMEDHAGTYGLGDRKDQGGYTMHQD
Experimental: (§2) Following a comparison of 37D3-H9 binding to biotinylated Tau monomer and biotinylated peptide (MAPT_10-24), binding of 37D3-H9 to additional biotinylated peptides was also assessed. Nunc maxisorp 96-well microplates were coated at 4° C. for >12 hours with Neutravidin diluted to 2 μg/ml in 50 mM Sodium Carbonate Buffer, pH 9.6. All subsequent incubations were performed at room temperature. After coating, plates were blocked with Superblock™ (PBS) Blocking Buffer (Thermo Fisher Scientific) for two hours then washed thoroughly with PBS, 0.05% Polysorbate 20. Wells were then exposed to biotinylated Tau peptides (Table 20) or Avi-tag biotinylated Tau monomer at 1 μg/ml for one hour and washed as previously. Peptides were synthesized using standard solid-phase Fmoc chemistry (see, e.g., Fmoc solid phase peptide synthesis: A practical approach; Chan, W. C., White, P. D., Eds.; Oxford University Press: New York, 2000). Antibodies 37D3-H9 mIgG2a and hu37D3-H9.v5 hIgG1, serially diluted from 500 nM to 50 pM in 90% Superblock™ (PBS) Blocking Buffer, were allowed to bind biotinylated-Tau coated wells for 90 minutes. Wells were washed as previously and bound antibody detected with peroxidase-conjugated secondary antibody (Invitrogen/Life Technologies) diluted 1/1000 in Superblock™ Blocking Buffer (Rabbit anti-Mouse IgG or Goat Anti-Human IgG (H+L) respectively). After twenty minutes wells were washed as previously and signal developed with TMB Microwell 2-Component Substrate (KPL). Reactions were stopped by addition of 1M Phosphoric Acid and absorbance at 450 nm was measured with a SpectraMax M2 platereader.

MAPT(2-24) = target: T12, MAPT(2-24) (human, biotinylated); test: as above
T12 construct: also called Tau fragment 2-24
T12 peptide: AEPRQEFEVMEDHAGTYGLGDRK
Experimental: as §2

[3] = target: T5, recombinant human Tau monomer, 2N4R …; test: SPR single-cycle, Tau monomer amine-coupled
Experimental: as §1

Tau fragment 2-21 L20A = target: T13, Tau fragment 2-21 L20A (human, UniProt P10636-8 2-21); test: alanine scanning of Tau fragment 2-21
T13 construct: range 2-21
T13 peptide (looked up): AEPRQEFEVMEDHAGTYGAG

Tau fragment 2-21 Y18A = target: T14, Tau fragment 2-21 Y18A (human, UniProt P10636-8 2-21); test: alanine scanning of Tau fragment 2-21
T14 construct: range 2-21
T14 peptide (looked up): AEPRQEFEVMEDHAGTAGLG

[4] = target: T15, full-length human Tau (flTau) (human, UniProt P10636-8 1-441); test: SPR, hybridoma Ab on anti-IgG chip, flTau analyte
T15 construct: range 1-441; bought (SignalChem); also called human Tau-441
Outline: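 Unpurified antibodies from serum-free hybridoma supernatants were captured on an anti-IgG SPR chip (Biacore T-100), and flTau was flowed as analyte. KD was obtained from kinetic analysis with a 1:1 Langmuir fit.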

T15 sequence (P10636 other isoform, or with tags, fused parts or gaps limits assumed): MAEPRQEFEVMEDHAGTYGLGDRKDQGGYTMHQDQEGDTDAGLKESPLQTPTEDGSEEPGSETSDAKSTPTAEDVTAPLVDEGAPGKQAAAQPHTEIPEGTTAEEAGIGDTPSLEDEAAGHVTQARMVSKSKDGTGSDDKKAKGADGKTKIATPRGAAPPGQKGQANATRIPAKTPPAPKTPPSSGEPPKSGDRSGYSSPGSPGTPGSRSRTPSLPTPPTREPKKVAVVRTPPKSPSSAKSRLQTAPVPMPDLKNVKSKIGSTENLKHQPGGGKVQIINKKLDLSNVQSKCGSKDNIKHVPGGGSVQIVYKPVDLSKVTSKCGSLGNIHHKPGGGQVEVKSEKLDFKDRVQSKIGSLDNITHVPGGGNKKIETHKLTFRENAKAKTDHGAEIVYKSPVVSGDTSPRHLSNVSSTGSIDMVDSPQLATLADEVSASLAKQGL

B1: 37D3-H9 (antibody, mouse IgG2a, V domains shown)
VH: EVQLVESGGDLAKPGGSLKLSCTASGLIFRSYGMSWVRQTPDKRLEWVATINSGGTYTYYPDSVKGRFTISRDNAKNTLYLQMSSLKSEDTAMYYCANSYSGAMDYWGQGTSVTVSS
VL: DDLLTQTPLSLPVSLGDPASISCRSSQSIVHSNGNTYFEWYLQKPGQSPKLLIYKVSNRFSGVPDRFSGSGSGTDFTLKISRVEAEDLGVYYCFQGSLVPWTFGGGTKLEIK
notes: also called 37D3-H9 mIgG2a; 37D3-H9 IgG
binding result (Tau fragment 8-22): binds | binding result (Tau fragment 9-23): binds | binding result (Tau fragment 11-25): binds | binding result (Tau fragment 7-21): binds | koff [1]: 1.1e-05 s⁻¹ | Kd [2]: 1.6 nM | koff [2]: 0.0001 s⁻¹ | kon [2]: 100000 M⁻¹ s⁻¹ | binding result (Tau fragment 28-42): no binding (tested: not given) | binding result (Tau fragment 19-33): no binding (tested: not given) | binding result (Tau fragment 1-15): no binding (tested: not given) | binding result (MAPT(10-24)): binds | binding result (Tau fragment 37-51): no binding (tested: not given) | binding result (MAPT(2-34)): binds | binding result (MAPT(2-24)): binds | fold difference in dissociation rate, Fab against IgG [3]: 45 fold | binding result (Tau fragment 2-21 L20A): no binding | binding result (Tau fragment 2-21 Y18A): no binding | Kd [4]: 1 nM
